Experimental data: the RNAGym collection of RNA variant scans (doi:10.7554/elife.80360)

B1: Hairpin Ribozyme (parent)
chain: GUCCUCUUUCACGUGCGCGUGAAAGAGAGAAGUGAACCAGAGAAACACACGUUGUGGUAUAUUACCUGGUA

Variants of: B1
Assay: self-cleavage, relative activity (ratio to wild type); higher = more cleavage; co-transcriptional
G19A A64C showed a self-cleavage of 0.181.
G19A C37G showed a self-cleavage of 0.188.
Work on G19A C38U yielded a self-cleavage of 0.508.
G19A C46G gave a self-cleavage of 0.176.
With G19A C50A the self-cleavage was 0.278.
G19A C65A showed a self-cleavage of 0.748.
For G19A C65G, the self-cleavage was 0.324.
For G19A C65U, the self-cleavage was 0.265.
G19A G21C showed a self-cleavage of 0.673.
In the case of G19A G25C, the self-cleavage is reported as 0.419.
Work on G19A G25U yielded a self-cleavage of 0.441.
For G19A G27U, the self-cleavage was 0.237.
Variant G19A G29U has a self-cleavage of 0.21.
With G19A G32A the self-cleavage was 0.131.
G19A G32U showed a self-cleavage of 0.175.
G19A G42C gave a self-cleavage of 0.289.
Work on G19A G54C yielded a self-cleavage of 0.403.
With G19A G57A the self-cleavage was 0.152.
In the case of G19A G57C, the self-cleavage is reported as 0.138.
In the case of G19A G68U, the self-cleavage is reported as 0.242.
In the case of G19A G69A, the self-cleavage is reported as 0.347.
In the case of G19A G69C, the self-cleavage is reported as 0.129.
For G19A U52C, the self-cleavage was 0.835.
In the case of G19A U53A, the self-cleavage is reported as 0.919.
With G19A U55A the self-cleavage was 0.29.
G19A U55C gave a self-cleavage of 0.123.
G19A U55G gave a self-cleavage of 0.216.
For G19A U60A, the self-cleavage was 0.658.
Work on G19A U60C yielded a self-cleavage of 1.05.
G19A U60G showed a self-cleavage of 0.448.
In the case of G19A U62G, the self-cleavage is reported as 0.103.
G19A U67C showed a self-cleavage of 0.186.
G19A U70C gave a self-cleavage of 0.922.
For G19C, the self-cleavage was 0.85.
G19C A23C gave a self-cleavage of 0.696.
G19C A26G gave a self-cleavage of 0.692.
Variant G19C A28C has a self-cleavage of 0.304.
G19C A28G gave a self-cleavage of 1.15.
For G19C A30G, the self-cleavage was 0.187.
G19C A31G showed a self-cleavage of 0.524.
With G19C A31U the self-cleavage was 0.0995.
With G19C A35C the self-cleavage was 0.832.
G19C A35U gave a self-cleavage of 0.574.
G19C A36G gave a self-cleavage of 0.766.
G19C A43U gave a self-cleavage of 0.121.
With G19C A44G the self-cleavage was 0.0921.
In the case of G19C A45C, the self-cleavage is reported as 0.114.
Work on G19C A45G yielded a self-cleavage of 0.277.
With G19C A49C the self-cleavage was 0.0455.
With G19C A49G the self-cleavage was 0.366.
In the case of G19C A59G, the self-cleavage is reported as 0.153.
Work on G19C A61G yielded a self-cleavage of 0.144.
Variant G19C A61U has a self-cleavage of 0.25.
Variant G19C C38A has a self-cleavage of 0.174.
G19C C38U showed a self-cleavage of 0.489.
G19C C46A showed a self-cleavage of 0.303.
For G19C C48G, the self-cleavage was 0.165.
Variant G19C C66G has a self-cleavage of 0.245.
With G19C G21U the self-cleavage was 0.718.
Variant G19C G29A has a self-cleavage of 0.112.
Variant G19C G32A has a self-cleavage of 0.147.
For G19C G34C, the self-cleavage was 1.31.
Work on G19C G40A yielded a self-cleavage of 0.343.
For G19C G40U, the self-cleavage was 0.091.
In the case of G19C G42A, the self-cleavage is reported as 0.194.
Work on G19C G42C yielded a self-cleavage of 0.329.
With G19C G54U the self-cleavage was 0.626.
Work on G19C G56A yielded a self-cleavage of 0.101.
For G19C G57A, the self-cleavage was 0.174.
In the case of G19C G68A, the self-cleavage is reported as 0.276.
Work on G19C G68C yielded a self-cleavage of 0.222.
Work on G19C U52A yielded a self-cleavage of 0.957.
Variant G19C U53A has a self-cleavage of 0.861.
Variant G19C U55C has a self-cleavage of 0.271.
G19C U58C gave a self-cleavage of 0.815.
Variant G19C U58G has a self-cleavage of 0.705.
Work on G19C U60A yielded a self-cleavage of 0.9.
In the case of G19C U60C, the self-cleavage is reported as 0.984.
With G19C U60G the self-cleavage was 0.541.
With G19C U67A the self-cleavage was 0.323.
For G19C U67G, the self-cleavage was 0.227.
For G19C U70A, the self-cleavage was 0.673.
G19U gave a self-cleavage of 0.891.
Variant G19U A22U has a self-cleavage of 0.648.
Work on G19U A24G yielded a self-cleavage of 0.926.
Variant G19U A24U has a self-cleavage of 0.684.
G19U A26U gave a self-cleavage of 0.682.
Variant G19U A28C has a self-cleavage of 0.357.
G19U A28U showed a self-cleavage of 0.628.
G19U A30G gave a self-cleavage of 0.12.
Variant G19U A30U has a self-cleavage of 0.181.
With G19U A31U the self-cleavage was 0.0864.
For G19U A39G, the self-cleavage was 0.297.
With G19U A43C the self-cleavage was 0.101.
With G19U A44U the self-cleavage was 0.124.
G19U A49U gave a self-cleavage of 0.158.
G19U A59G gave a self-cleavage of 0.204.
Work on G19U A59U yielded a self-cleavage of 0.213.
For G19U A64C, the self-cleavage was 0.162.
For G19U A64G, the self-cleavage was 0.539.
Work on G19U A71G yielded a self-cleavage of 1.02.
In the case of G19U C37A, the self-cleavage is reported as 0.34.
G19U C38A gave a self-cleavage of 0.141.
In the case of G19U C38U, the self-cleavage is reported as 0.481.
Work on G19U C48G yielded a self-cleavage of 0.2.
Work on G19U C50A yielded a self-cleavage of 0.329.
With G19U C65A the self-cleavage was 0.733.
Work on G19U C65G yielded a self-cleavage of 0.405.
G19U C66A gave a self-cleavage of 0.272.
For G19U G21A, the self-cleavage was 0.875.
Work on G19U G27A yielded a self-cleavage of 0.489.
G19U G29A showed a self-cleavage of 0.111.
Variant G19U G29U has a self-cleavage of 0.14.
Work on G19U G32A yielded a self-cleavage of 0.124.
For G19U G34C, the self-cleavage was 1.36.
In the case of G19U G34U, the self-cleavage is reported as 1.3.
G19U G40A gave a self-cleavage of 0.325.
Work on G19U G54A yielded a self-cleavage of 0.468.
Variant G19U G54U has a self-cleavage of 0.497.
G19U G57C showed a self-cleavage of 0.105.
G19U G68C showed a self-cleavage of 0.196.
Work on G19U G69U yielded a self-cleavage of 0.227.
For G19U U20A, the self-cleavage was 0.825.
G19U U52G gave a self-cleavage of 0.741.
For G19U U60A, the self-cleavage was 0.804.
For G19U U60G, the self-cleavage was 0.444.
G19U U62A gave a self-cleavage of 0.268.
Work on G19U U62G yielded a self-cleavage of 0.24.
With G19U U63A the self-cleavage was 0.166.
In the case of G19U U67C, the self-cleavage is reported as 0.214.
G19U U70G gave a self-cleavage of 0.79.
U20A A22C gave a self-cleavage of 0.373.
For U20A A22G, the self-cleavage was 0.587.
In the case of U20A A22U, the self-cleavage is reported as 0.849.
U20A A24U gave a self-cleavage of 0.732.
Work on U20A A26C yielded a self-cleavage of 0.394.
With U20A A26U the self-cleavage was 0.611.
Work on U20A A28U yielded a self-cleavage of 0.497.
U20A A30C showed a self-cleavage of 0.253.
In the case of U20A A31C, the self-cleavage is reported as 0.21.
For U20A A35C, the self-cleavage was 0.967.
Work on U20A A35G yielded a self-cleavage of 0.815.
U20A A36U showed a self-cleavage of 0.497.
Variant U20A A41G has a self-cleavage of 0.681.
U20A A43G showed a self-cleavage of 0.348.
For U20A A43U, the self-cleavage was 0.0666.
With U20A A45C the self-cleavage was 0.109.
Variant U20A A45G has a self-cleavage of 0.183.
Variant U20A A47G has a self-cleavage of 0.185.
U20A A47U showed a self-cleavage of 0.274.
U20A A49C showed a self-cleavage of 0.131.
For U20A A49U, the self-cleavage was 0.272.
In the case of U20A A64G, the self-cleavage is reported as 0.562.
U20A A71C gave a self-cleavage of 1.15.
For U20A A71U, the self-cleavage was 0.735.
Variant U20A C37G has a self-cleavage of 0.375.
U20A C50A showed a self-cleavage of 0.423.
With U20A C50U the self-cleavage was 0.5.
U20A C66A gave a self-cleavage of 0.231.
Work on U20A G21A yielded a self-cleavage of 0.79.
Work on U20A G21U yielded a self-cleavage of 0.642.
For U20A G25A, the self-cleavage was 0.453.
In the case of U20A G25U, the self-cleavage is reported as 0.529.
U20A G29A showed a self-cleavage of 0.101.
With U20A G32A the self-cleavage was 0.18.
Variant U20A G34A has a self-cleavage of 0.993.
U20A G34C showed a self-cleavage of 1.26.
